Results as given in the supplement of paper PMC7125110.
± gives the standard error. Variants at the floor of the assay were thinned out.

B1: glmS ribozyme (parent)
chain: AUAAAAGCGCCAGAACUACAGAAAUGUAGUUGACGAGGAGGAGGUUUAUCGAAUUUUCGGCGGAUGCCUCCAAA

Legend:
Settings in all cases: with glucosamine-6-phosphate
[1] = variants of: B1; test: self-cleavage kobs at 40 uM GlcN6P; higher = faster cleavage; RNA array
Outline: (§1)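 Glucosamine-6-phosphate in HEPES/KCl/Mg(OAc)2 buffer, at 40 μM to 10 mM, was flowed over barcoded ribozyme variants transcribed in situ by E. coli RNA polymerase on sequenced MiSeq chips. Tracking was through a hybridised Cy3 probe at 37 °C. kobs, kcat and KM came from exponential decay fits and weighted Michaelis–Menten fits of normalised per-tile medians.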

[2] = variants of: B1; test: self-cleavage kobs at 640 uM GlcN6P; higher = faster cleavage; RNA array
Outline: as §1

[3] = variants of: B1; test: self-cleavage kobs at 2500 uM GlcN6P; higher = faster cleavage; RNA array
Outline: as §1

[4] = variants of: B1; test: self-cleavage kobs at 10000 uM GlcN6P; higher = faster cleavage; RNA array
Outline: as §1

[5] = variants of: B1; test: self-cleavage kobs at 160 uM GlcN6P; higher = faster cleavage; RNA array
Outline: as §1

Variant	self-cleavage kobs at 40 uM GlcN6P [1]	self-cleavage kobs at 640 uM GlcN6P [2]	self-cleavage kobs at 2500 uM GlcN6P [3]	self-cleavage kobs at 10000 uM GlcN6P [4]	self-cleavage kobs at 160 uM GlcN6P [5]
G37C U46C	< 1e-05 s⁻¹	–	–	–	–
A36C G63A	< 1e-05 s⁻¹	< 1e-05 s⁻¹	–	–	–
G37A U49A	< 1e-05 s⁻¹	< 1e-05 s⁻¹	< 1e-05 s⁻¹	–	–
A36U G44C U47G	< 1e-05 s⁻¹	–	–	< 1e-05 s⁻¹	–
C10U G13A C67A	< 1e-05 s⁻¹	< 1e-05 s⁻¹	–	< 1e-05 s⁻¹	–
C8A U56A	< 1e-05 s⁻¹	< 1e-05 s⁻¹	< 1e-05 s⁻¹	< 1e-05 s⁻¹	< 1e-05 s⁻¹
A12U U57C C61A	< 1e-05 s⁻¹	< 1e-05 s⁻¹	–	< 1e-05 s⁻¹	–
A15U A33C A36C G37U G40C C58U	< 1e-05 s⁻¹	–	–	< 1e-05 s⁻¹	–
G9A C34G U46C C61U G62U	< 1e-05 s⁻¹	–	–	–	–
C8G G41U	< 1e-05 s⁻¹	< 1e-05 s⁻¹	< 1e-05 s⁻¹	< 1e-05 s⁻¹	< 1e-05 s⁻¹
G35A G44U U49A	< 1e-05 s⁻¹	–	–	–	–
A12U U65A C67A	6.19e-05 ± 1.3e-05 s⁻¹	–	–	0.000114 ± 2e-05 s⁻¹	–
U2C C11U G40A U45G	< 1e-05 s⁻¹	–	–	–	–
A15U G59C A64C	< 1e-05 s⁻¹	–	–	–	–
G21A G44U U57G C67A	< 1e-05 s⁻¹	–	–	–	–
C11U G40C U46G	< 1e-05 s⁻¹	–	–	–	–
A12G A48G G63A A64G	< 1e-05 s⁻¹	–	–	< 1e-05 s⁻¹	–
A36C G41A C68A	< 1e-05 s⁻¹	< 1e-05 s⁻¹	< 1e-05 s⁻¹	< 1e-05 s⁻¹	–
G51A A52C	< 1e-05 s⁻¹	–	–	< 1e-05 s⁻¹	< 1e-05 s⁻¹
G35U U45A G63C C71G	< 1e-05 s⁻¹	–	< 1e-05 s⁻¹	< 1e-05 s⁻¹	–
C8A G62C	< 1e-05 s⁻¹	< 1e-05 s⁻¹	< 1e-05 s⁻¹	< 1e-05 s⁻¹	–
G7U C8U	< 1e-05 s⁻¹	< 1e-05 s⁻¹	< 1e-05 s⁻¹	< 1e-05 s⁻¹	< 1e-05 s⁻¹
A6G G60A U65G	< 1e-05 s⁻¹	–	–	< 1e-05 s⁻¹	–
G62C C67G	< 1e-05 s⁻¹	< 1e-05 s⁻¹	< 1e-05 s⁻¹	< 1e-05 s⁻¹	–
G9C C70U	< 1e-05 s⁻¹	< 1e-05 s⁻¹	< 1e-05 s⁻¹	< 1e-05 s⁻¹	< 1e-05 s⁻¹
